# Patent publication US20180155451A1 (published 2018)
# T1: FcγRIIb extracellular domain with C-terminal His tag (human, UniProt P31994 43-217)
# T1 construct: extracellular domain; also called 2b; FcgRIIb
# T1 sequence (looked up): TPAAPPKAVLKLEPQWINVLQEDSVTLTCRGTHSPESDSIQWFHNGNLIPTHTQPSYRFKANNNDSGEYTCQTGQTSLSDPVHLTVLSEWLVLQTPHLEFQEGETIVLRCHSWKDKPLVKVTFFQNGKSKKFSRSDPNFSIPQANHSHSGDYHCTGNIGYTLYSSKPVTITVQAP
# T2: FcγRIIb (human, UniProt P31994 43-217)
# T2 construct: extracellular domain; also called FcgRIIb; 2b
# T2 sequence (looked up): T1 sequence (looked up)
# T3: FcγRIIa R (FcγRIIa, allotype R: Arg at position 131) extracellular domain with C-terminal His tag (human, UniProt P12318 34-217)
# T3 construct: extracellular domain; also called FcgRIIa R; 2aR; not shown: His tag at the C terminus
# T3 sequence (looked up): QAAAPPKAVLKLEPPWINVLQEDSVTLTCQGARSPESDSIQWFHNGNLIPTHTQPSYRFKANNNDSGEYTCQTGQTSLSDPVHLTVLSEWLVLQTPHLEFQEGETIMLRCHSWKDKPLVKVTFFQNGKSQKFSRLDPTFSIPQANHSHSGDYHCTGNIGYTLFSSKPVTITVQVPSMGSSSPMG
# T4: FcγRIIb extracellular domain with C-terminal His tag (human, UniProt P31994 43-217)
# T4 construct: extracellular domain; also called FcgRIIb; 2b; not shown: His tag at the C terminus
# T4 sequence (looked up): T1 sequence (looked up)
# B1: GpH7-A5/GpH7-B3 variant S324_15Y/GpL16-k0 (antibody, human IgG1, kappa)
# heavy 1: not shown
# heavy 2: not shown
# light: DIVMTQSPLSLPVTPGEPASISCQASESLVHSNRNTYLHWYLQKPGQSPQLLIYKVSNRFSGVPDRFSGSGSGTDFTLKISRVEAEDVGVYYCSQNTHVPPTFGQGTKVEIERTVAAPSVFIFPPSDEQLKSGTASVVCLLNNFYPREAKVQWKVDNALQSGNSQESVTEQDSKDSTYSLSSTLTLSKADYEKHKVYACEVTHQGLSSPVTKSFNRGEC
# notes: He Ab: alteration in one H chain only; also called He Ab
# B2: GpH7-A5/GpH7-B3 variant S324_16H/GpL16-k0 (antibody, human IgG1, kappa)
# heavy 1: not shown
# heavy 2: not shown
# light: B1 light
# notes: as for B1
# B3: GpH7-A5/GpH7-B3 variant S324_20W/GpL16-k0 (antibody, human IgG1, kappa)
# heavy 1: not shown
# heavy 2: not shown
# light: B1 light
# notes: as for B1
# B4: GpH7-A5/GpH7-B3 variant Y300_08L/GpL16-k0 (antibody, human IgG1, kappa)
# heavy 1: not shown
# heavy 2: not shown
# light: B1 light
# notes: as for B1
# B5: GpH7-A5/GpH7-B3 variant I336_04F/GpL16-k0 (antibody, human IgG1, kappa)
# heavy 1: not shown
# heavy 2: not shown
# light: B1 light
# notes: heterodimerized IgG1, one H chain mutated; also called He Ab
# B6: GpH7-A5/GpH7-B3 variant I336_11K/GpL16-k0 (antibody, human IgG1, kappa)
# heavy 1: not shown
# heavy 2: not shown
# light: B1 light
# notes: as for B5
# B7: GpH7-A5/GpH7-B3 variant I336_16H/GpL16-k0 (antibody, human IgG1, kappa)
# heavy 1: not shown
# heavy 2: not shown
# light: B1 light
# notes: as for B5
# B8: GpH7-A5/GpH7-B3 variant S337_02A/GpL16-k0 (antibody, human IgG1, kappa)
# heavy 1: not shown
# heavy 2: not shown
# light: B1 light
# notes: as for B5
# B9: GpH7-A5/GpH7-B3 variant S337_03V/GpL16-k0 (antibody, human IgG1, kappa)
# heavy 1: not shown
# heavy 2: not shown
# light: B1 light
# notes: as for B5
# B10: GpH7-A5/GpH7-B3 variant S337_11K/GpL16-k0 (antibody, human IgG1, kappa)
# heavy 1: not shown
# heavy 2: not shown
# light: B1 light
# notes: as for B5
# B11: GpH7-A5/GpH7-B3 variant I336_12R/GpL16-k0 (antibody, human IgG1, kappa)
# heavy 1: not shown
# heavy 2: not shown
# light: B1 light
# notes: as for B5
# B12: GpH7-A5/GpH7-B3 variant S337_04F/GpL16-k0 (antibody, human IgG1, kappa)
# heavy 1: not shown
# heavy 2: not shown
# light: B1 light
# notes: as for B5
# B13: GpH7-A5/GpH7-B3 variant I336_18N/GpL16-k0 (antibody, human IgG1, kappa)
# heavy 1: not shown
# heavy 2: not shown
# light: B1 light
# notes: as for B5
# B14: GpH7-A5/GpH7-B3 variant I336_14T/GpL16-k0 (antibody, human IgG1, kappa)
# heavy 1: not shown
# heavy 2: not shown
# light: B1 light
# notes: as for B5
# B15: GpH7-A5/GpH7-B3 variant S337_06M/GpL16-k0 (antibody, human IgG1, kappa)
# heavy 1: not shown
# heavy 2: not shown
# light: B1 light
# notes: as for B5
# B16: GpH7-A5/GpH7-B3 variant I336_15Y/GpL16-k0 (antibody, human IgG1, kappa)
# heavy 1: not shown
# heavy 2: not shown
# light: B1 light
# notes: as for B5
# B17: GpH7-A5/GpH7-B3 variant I336_19Q/GpL16-k0 (antibody, human IgG1, kappa)
# heavy 1: not shown
# heavy 2: not shown
# light: B1 light
# notes: as for B5
# B18: GpH7-A5/GpH7-B3 variant S337_12R/GpL16-k0 (antibody, human IgG1, kappa)
# heavy 1: not shown
# heavy 2: not shown
# light: B1 light
# notes: as for B5
# B19: GpH7-A5/GpH7-B3 variant I336_13S/GpL16-k0 (antibody, human IgG1, kappa)
# heavy 1: not shown
# heavy 2: not shown
# light: B1 light
# notes: as for B5
# B20: GpH7-A5/GpH7-B3 variant I336_10E/GpL16-k0 (antibody, human IgG1, kappa)
# heavy 1: not shown
# heavy 2: not shown
# light: B1 light
# notes: as for B5
# B21: GpH7-A5/GpH7-B3 variant I336_09D/GpL16-k0 (antibody, human IgG1, kappa)
# heavy 1: not shown
# heavy 2: not shown
# light: B1 light
# notes: as for B5
# B22: GpH7-A5/GpH7-B3 variant S337_01G/GpL16-k0 (antibody, human IgG1, kappa)
# heavy 1: not shown
# heavy 2: not shown
# light: B1 light
# notes: as for B5
# B23: GpH7-A5/GpH7-B3 variant S337_19Q/GpL16-k0 (antibody, human IgG1, kappa)
# heavy 1: not shown
# heavy 2: not shown
# light: B1 light
# notes: as for B5
# B24: GpH7-A5/GpH7-B3 variant A330_15Y/GpL16-k0 (antibody, human IgG1, kappa)
# heavy 1: not shown
# heavy 2: not shown
# light: B1 light
# notes: He Ab: alteration in the GpH7-B3 H chain only; also called He Ab
# B25: GpH7-A5/GpH7-B3 variant A330_12R/GpL16-k0 (antibody, human IgG1, kappa)
# heavy 1: not shown
# heavy 2: not shown
# light: B1 light
# notes: as for B24
# B26: GpH7-A5/GpH7-B3 variant A330_11K/GpL16-k0 (antibody, human IgG1, kappa)
# heavy 1: not shown
# heavy 2: not shown
# light: B1 light
# notes: as for B24
# B27: GpH7-A5/GpH7-B3 variant K326_12R/GpL16-k0 (antibody, human IgG1, kappa)
# heavy 1: not shown
# heavy 2: not shown
# light: B1 light
# notes: as for B24
# B28: GpH7-A5/GpH7-B3 variant L234_04F/GpL16-k0 (antibody, human IgG1, kappa)
# heavy 1: not shown
# heavy 2: not shown
# light: B1 light
# notes: as for B24
# B29: GpH7-A5/GpH7-B3 variant E333_04F/GpL16-k0 (antibody, human IgG1, kappa)
# heavy 1: not shown
# heavy 2: not shown
# light: B1 light
# notes: as for B24
# B30: GpH7-A5/GpH7-B3 variant H268_11K/GpL16-k0 (antibody, human IgG1, kappa)
# heavy 1: not shown
# heavy 2: not shown
# light: B1 light
# notes: as for B24
# B31: GpH7-A5/GpH7-B3 variant H268_12R/GpL16-k0 (antibody, human IgG1, kappa)
# heavy 1: not shown
# heavy 2: not shown
# light: B1 light
# notes: as for B24
# B32: GpH7-A5/GpH7-B3 variant A330_19Q/GpL16-k0 (antibody, human IgG1, kappa)
# heavy 1: not shown
# heavy 2: not shown
# light: B1 light
# notes: as for B24
# B33: GpH7-A5/GpH7-B3 variant E333_05P/GpL16-k0 (antibody, human IgG1, kappa)
# heavy 1: not shown
# heavy 2: not shown
# light: B1 light
# notes: as for B24
# Target: T5, FcγRIIIa extracellular domain with C-terminal His tag (human, UniProt P08637 17-208)
# T5 construct: extracellular domain; also called 3a; FcgRIIIa
# T5 sequence (P08637 17-208): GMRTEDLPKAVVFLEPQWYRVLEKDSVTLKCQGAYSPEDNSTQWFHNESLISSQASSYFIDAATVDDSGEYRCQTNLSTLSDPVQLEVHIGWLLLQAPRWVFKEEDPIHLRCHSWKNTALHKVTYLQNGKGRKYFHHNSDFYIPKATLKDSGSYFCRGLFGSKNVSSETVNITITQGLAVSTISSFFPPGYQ
# Test: SPR, relative to GpH7-A5/GpH7-B3/GpL16-k0
# Procedure: (§1) The heterodimerized antibodies He Abs in which one of the H chains was introduced with an alteration were assayed for their binding activities to each activating FcγR and inhibitory FcγR according to the method described in Example 4. […] The activating FcγRs in FIGS. 26, 27, 28, and 29 are FcγRIa, FcγRIIa (R), FcγRIIa (H), and FcγRIIIa, respectively.
# (§2) Analysis of interaction between objective antibody and the FcγR was carried out using Biacore T100 (GE Healthcare). HBS-EP+ (GE Healthcare) was used as the running buffer, and the measurement temperature was set to 25° C. Chips produced by immobilizing the antigen peptide by the amine coupling method to a Series S Sencor Chip CM5 (GE Healthcare), or alternatively, chips produced by allowing preliminarily biotinylated antigen peptides to interact with and immobilize onto a Series S Sensor Chip SA (certified) (GE Healthcare) were used. Antibodies of interest were captured onto an antigen peptide-immobilized chip, and allowed to interact to each FcγR diluted with running buffer. To regenerate and repeatedly use the chip, the antibodies captured on the chip were washed off by reacting 10 mM glycine-HCl, pH 1.5.
row,Binder,He/Con_3a [control=100]
1,B1,101
2,B2,104
3,B3,102
4,B4,105

# Target: T1, FcγRIIb extracellular domain with …
# Test: SPR, relative to GpH7-A5/GpH7-B3/GpL16-k0
# Procedure: as §1, §2
row,Binder,He/Con_2b [control=100]
1,B1,88.2
2,B2,83.5
3,B3,87.5
4,B4,73.6

# Target: T6, FcγRIa (human, UniProt P12314 16-292)
# T6 construct: extracellular domain; also called FcgRI; FcgRIa
# T6 sequence (P12314 16-292): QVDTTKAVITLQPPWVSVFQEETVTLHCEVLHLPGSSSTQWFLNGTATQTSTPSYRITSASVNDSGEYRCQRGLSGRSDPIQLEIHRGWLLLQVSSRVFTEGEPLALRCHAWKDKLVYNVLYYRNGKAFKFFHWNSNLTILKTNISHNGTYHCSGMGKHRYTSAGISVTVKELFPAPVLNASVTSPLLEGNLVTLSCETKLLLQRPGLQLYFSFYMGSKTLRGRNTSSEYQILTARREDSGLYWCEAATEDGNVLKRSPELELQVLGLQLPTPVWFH
# Test: SPR (Biacore), relative to GpH7-A5/GpH7-B3/GpL16-k0 = 100
# Procedure: as §1, §2
row,Binder,He/Con_1a (Ia binding)
1,B5,106 relative (control = 100)
2,B6,105 relative (control = 100)
3,B7,101 relative (control = 100)
4,B8,106 relative (control = 100)
5,B9,107 relative (control = 100)
6,B10,104 relative (control = 100)
7,B11,102 relative (control = 100)
8,B12,106 relative (control = 100)
9,B13,108 relative (control = 100)
10,B14,104 relative (control = 100)
11,B15,107 relative (control = 100)
12,B16,103 relative (control = 100)
13,B17,104 relative (control = 100)
14,B18,106 relative (control = 100)
15,B19,102 relative (control = 100)
16,B20,108 relative (control = 100)
17,B21,104 relative (control = 100)
18,B22,107 relative (control = 100)
19,B23,105 relative (control = 100)

# Target: T2, FcγRIIb
# Test: as above
# Procedure: as §1, §2
row,Binder,He/Con_2b (IIb binding)
1,B5,91.2 relative (control = 100)
2,B6,90.3 relative (control = 100)
3,B7,85.8 relative (control = 100)
4,B8,97.2 relative (control = 100)
5,B9,98.9 relative (control = 100)
6,B10,94.3 relative (control = 100)
7,B11,92.1 relative (control = 100)
8,B12,97.8 relative (control = 100)
9,B13,97.6 relative (control = 100)
10,B14,89.5 relative (control = 100)
11,B15,96.7 relative (control = 100)
12,B16,68.2 relative (control = 100)
13,B17,58.2 relative (control = 100)
14,B18,99.5 relative (control = 100)
15,B19,83.7 relative (control = 100)
16,B20,89.8 relative (control = 100)
17,B21,92.1 relative (control = 100)
18,B22,92 relative (control = 100)
19,B23,99.7 relative (control = 100)

# Target: T3, FcγRIIa R (FcγRIIa, allotype R: Arg at …)
# Test: SPR Biacore, antibody captured, FcgR analyte; vs HeCon Ab GpH7-A5/GpH7-B3/GpL16-k0 = 100
# Procedure: as §1, §2
row,Binder,He/Con_2aR [control = 100]
1,B24,102
2,B25,104
3,B26,110
4,B27,103
5,B28,104
6,B29,102
7,B30,100
8,B31,105
9,B32,104
10,B33,105

# Target: T4, FcγRIIb extracellular domain with …
# Test: as above
# Procedure: as §1, §2
row,Binder,He/Con_2b [control = 100]
1,B24,95
2,B25,84.8
3,B26,95
4,B27,89.2
5,B28,99.8
6,B29,94.6
7,B30,83
8,B31,89.8
9,B32,90.8
10,B33,97.7
